Results reported in patent US20140087995A1 (published 2014).
Numbered stars: 1 amine (or outer) side, 2 acyl side, 3 side chain; on linkers, the order of the positions; unused ones are H or OH. Bridge positions count the residues as written; N and C are the ends. Side chains are listed from the residue outwards. Ends that are not written are not given here. * marks the point of attachment. C20 diacid = O=C(O)CCCCCCCCCCCCCCCCCCC(=O)*; γGlu = O=C(O)[C@H](CCC(=O)[*:2])N[*:1]; AEEA = NCCOCCOCC(=O)O

T1: human amylin 3(a) receptor (human calcitonin receptor co-expressed with RAMP-3) (human, UniProt P30988 25-474; O60896 24-148, limits assumed)
T1 sequence (looked up) 1: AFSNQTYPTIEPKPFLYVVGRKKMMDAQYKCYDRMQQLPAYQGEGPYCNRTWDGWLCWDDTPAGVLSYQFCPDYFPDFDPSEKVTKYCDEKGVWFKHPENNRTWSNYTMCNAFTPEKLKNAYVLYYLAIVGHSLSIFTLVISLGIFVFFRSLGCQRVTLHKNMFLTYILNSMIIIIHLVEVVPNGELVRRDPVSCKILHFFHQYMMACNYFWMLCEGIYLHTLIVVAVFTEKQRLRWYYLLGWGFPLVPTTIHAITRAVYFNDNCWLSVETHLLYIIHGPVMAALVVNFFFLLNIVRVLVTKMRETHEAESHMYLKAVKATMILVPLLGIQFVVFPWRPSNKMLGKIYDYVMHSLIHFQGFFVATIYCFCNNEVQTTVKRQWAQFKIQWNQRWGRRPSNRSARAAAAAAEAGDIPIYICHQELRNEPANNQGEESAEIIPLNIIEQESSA
T1 sequence (looked up) 2: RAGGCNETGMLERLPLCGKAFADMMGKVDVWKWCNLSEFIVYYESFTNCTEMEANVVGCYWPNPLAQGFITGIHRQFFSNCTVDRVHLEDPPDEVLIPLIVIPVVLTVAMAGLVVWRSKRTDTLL

T2: human calcitonin receptor (human, UniProt P30988 25-474)
T2 sequence (looked up): T1 sequence (looked up) 1

B1: N^α1-[(4S)-4-carboxy-4-[[(4S)-4-carboxy-4-(19-carboxynonadecanoylamino)butanoyl]amino]butanoyl]-[Glu14,Arg17,Pro21,Pro27]-h-amylin (peptide)
peptide: {C20 diacid-γGlu-γGlu}-KCNTATCATQRLAEFLRHSSPNFGAIPSSTNVGSNTY-NH2
modifications: disulfide 2-7
SMILES: CC[C@H](C)[C@H](NC(=O)[C@H](C)NC(=O)CNC(=O)[C@H](Cc1ccccc1)NC(=O)[C@H](CC(N)=O)NC(=O)[C@@H]1CCCN1C(=O)[C@H](CO)NC(=O)[C@H](CO)NC(=O)[C@H](Cc1c[nH]cn1)NC(=O)[C@H](CCCNC(=N)N)NC(=O)[C@H](CC(C)C)NC(=O)[C@H](Cc1ccccc1)NC(=O)[C@H](CCC(=O)O)NC(=O)[C@H](C)NC(=O)[C@H](CC(C)C)NC(=O)[C@H](CCCNC(=N)N)NC(=O)[C@H](CCC(N)=O)NC(=O)[C@@H](NC(=O)[C@H](C)NC(=O)[C@@H]1CSSC[C@H](NC(=O)[C@H](CCCCN)NC(=O)CC[C@H](NC(=O)CC[C@H](NC(=O)CCCCCCCCCCCCCCCCCCC(=O)O)C(=O)O)C(=O)O)C(=O)N[C@@H](CC(N)=O)C(=O)N[C@@H]([C@@H](C)O)C(=O)N[C@@H](C)C(=O)N[C@@H]([C@@H](C)O)C(=O)N1)[C@@H](C)O)C(=O)N1CCC[C@H]1C(=O)N[C@@H](CO)C(=O)N[C@@H](CO)C(=O)N[C@H](C(=O)N[C@@H](CC(N)=O)C(=O)N[C@H](C(=O)NCC(=O)N[C@@H](CO)C(=O)N[C@@H](CC(N)=O)C(=O)N[C@H](C(=O)N[C@@H](Cc1ccc(O)cc1)C(N)=O)[C@@H](C)O)C(C)C)[C@@H](C)O
notes: h-amylin derivative; disulfide bridge and C-terminal amide as told for human amylin; also called compound 15
B2: N^ε1-[2-[2-[2-[[(4S)-4-carboxy-4-(19-carboxynonadecanoylamino)butanoyl]amino]ethoxy]ethoxy]acetyl]-[Arg17,Pro21,Pro27,Pro29,Pro34]-h-amylin (peptide)
peptide: K([AEEA-γGlu-C20 diacid])CNTATCATQRLANFLRHSSPNFGAIPSPTNVGPNTY-NH2
modifications: disulfide 2-7; N-terminus assumed
SMILES: CC[C@H](C)[C@H](NC(=O)[C@H](C)NC(=O)CNC(=O)[C@H](Cc1ccccc1)NC(=O)[C@H](CC(N)=O)NC(=O)[C@@H]1CCCN1C(=O)[C@H](CO)NC(=O)[C@H](CO)NC(=O)[C@H](Cc1c[nH]cn1)NC(=O)[C@H](CCCNC(=N)N)NC(=O)[C@H](CC(C)C)NC(=O)[C@H](Cc1ccccc1)NC(=O)[C@H](CC(N)=O)NC(=O)[C@H](C)NC(=O)[C@H](CC(C)C)NC(=O)[C@H](CCCNC(=N)N)NC(=O)[C@H](CCC(N)=O)NC(=O)[C@@H](NC(=O)[C@H](C)NC(=O)[C@@H]1CSSC[C@H](NC(=O)[C@@H](N)CCCCNC(=O)COCCOCCNC(=O)CC[C@H](NC(=O)CCCCCCCCCCCCCCCCCCC(=O)O)C(=O)O)C(=O)N[C@@H](CC(N)=O)C(=O)N[C@@H]([C@@H](C)O)C(=O)N[C@@H](C)C(=O)N[C@@H]([C@@H](C)O)C(=O)N1)[C@@H](C)O)C(=O)N1CCC[C@H]1C(=O)N[C@@H](CO)C(=O)N1CCC[C@H]1C(=O)N[C@H](C(=O)N[C@@H](CC(N)=O)C(=O)N[C@H](C(=O)NCC(=O)N1CCC[C@H]1C(=O)N[C@@H](CC(N)=O)C(=O)N[C@H](C(=O)N[C@@H](Cc1ccc(O)cc1)C(N)=O)[C@@H](C)O)C(C)C)[C@@H](C)O
notes: h-amylin derivative; disulfide bridge and C-terminal amide as told for human amylin; also called compound 56
B3: N^ε1-[2-[2-[2-[[(4S)-4-carboxy-4-(19-carboxynonadecanoylamino)butanoyl]amino]ethoxy]ethoxy]acetyl]-[Arg17,Pro21,Pro27,Pro34,His35]-h-amylin (peptide)
peptide: K([AEEA-γGlu-C20 diacid])CNTATCATQRLANFLRHSSPNFGAIPSSTNVGPHTY-NH2
modifications: disulfide 2-7; N-terminus assumed
SMILES: CC[C@H](C)[C@H](NC(=O)[C@H](C)NC(=O)CNC(=O)[C@H](Cc1ccccc1)NC(=O)[C@H](CC(N)=O)NC(=O)[C@@H]1CCCN1C(=O)[C@H](CO)NC(=O)[C@H](CO)NC(=O)[C@H](Cc1c[nH]cn1)NC(=O)[C@H](CCCNC(=N)N)NC(=O)[C@H](CC(C)C)NC(=O)[C@H](Cc1ccccc1)NC(=O)[C@H](CC(N)=O)NC(=O)[C@H](C)NC(=O)[C@H](CC(C)C)NC(=O)[C@H](CCCNC(=N)N)NC(=O)[C@H](CCC(N)=O)NC(=O)[C@@H](NC(=O)[C@H](C)NC(=O)[C@@H]1CSSC[C@H](NC(=O)[C@@H](N)CCCCNC(=O)COCCOCCNC(=O)CC[C@H](NC(=O)CCCCCCCCCCCCCCCCCCC(=O)O)C(=O)O)C(=O)N[C@@H](CC(N)=O)C(=O)N[C@@H]([C@@H](C)O)C(=O)N[C@@H](C)C(=O)N[C@@H]([C@@H](C)O)C(=O)N1)[C@@H](C)O)C(=O)N1CCC[C@H]1C(=O)N[C@@H](CO)C(=O)N[C@@H](CO)C(=O)N[C@H](C(=O)N[C@@H](CC(N)=O)C(=O)N[C@H](C(=O)NCC(=O)N1CCC[C@H]1C(=O)N[C@@H](Cc1c[nH]cn1)C(=O)N[C@H](C(=O)N[C@@H](Cc1ccc(O)cc1)C(N)=O)[C@@H](C)O)C(C)C)[C@@H](C)O
notes: h-amylin derivative; disulfide bridge and C-terminal amide as told for human amylin; also called compound 58
B4: N^ε1-[2-[2-[2-[[(4S)-4-carboxy-4-(19-carboxynonadecanoylamino)butanoyl]amino]ethoxy]ethoxy]acetyl]-[Arg17,Pro21,Pro27,Pro28,Pro34]-h-amylin (peptide)
peptide: K([AEEA-γGlu-C20 diacid])CNTATCATQRLANFLRHSSPNFGAIPPSTNVGPNTY-NH2
modifications: disulfide 2-7; N-terminus assumed
SMILES: CC[C@H](C)[C@H](NC(=O)[C@H](C)NC(=O)CNC(=O)[C@H](Cc1ccccc1)NC(=O)[C@H](CC(N)=O)NC(=O)[C@@H]1CCCN1C(=O)[C@H](CO)NC(=O)[C@H](CO)NC(=O)[C@H](Cc1c[nH]cn1)NC(=O)[C@H](CCCNC(=N)N)NC(=O)[C@H](CC(C)C)NC(=O)[C@H](Cc1ccccc1)NC(=O)[C@H](CC(N)=O)NC(=O)[C@H](C)NC(=O)[C@H](CC(C)C)NC(=O)[C@H](CCCNC(=N)N)NC(=O)[C@H](CCC(N)=O)NC(=O)[C@@H](NC(=O)[C@H](C)NC(=O)[C@@H]1CSSC[C@H](NC(=O)[C@@H](N)CCCCNC(=O)COCCOCCNC(=O)CC[C@H](NC(=O)CCCCCCCCCCCCCCCCCCC(=O)O)C(=O)O)C(=O)N[C@@H](CC(N)=O)C(=O)N[C@@H]([C@@H](C)O)C(=O)N[C@@H](C)C(=O)N[C@@H]([C@@H](C)O)C(=O)N1)[C@@H](C)O)C(=O)N1CCC[C@H]1C(=O)N1CCC[C@H]1C(=O)N[C@@H](CO)C(=O)N[C@H](C(=O)N[C@@H](CC(N)=O)C(=O)N[C@H](C(=O)NCC(=O)N1CCC[C@H]1C(=O)N[C@@H](CC(N)=O)C(=O)N[C@H](C(=O)N[C@@H](Cc1ccc(O)cc1)C(N)=O)[C@@H](C)O)C(C)C)[C@@H](C)O
notes: h-amylin derivative; disulfide bridge and C-terminal amide as told for human amylin; also called compound 55
B5: N^ε1-[2-[2-[2-[[(4S)-4-carboxy-4-(19-carboxynonadecanoylamino)butanoyl]amino]ethoxy]ethoxy]acetyl]-[Arg17,Pro21,Pro27,Pro29,Pro31]-h-amylin (peptide)
peptide: K([AEEA-γGlu-C20 diacid])CNTATCATQRLANFLRHSSPNFGAIPSPTPVGSNTY-NH2
modifications: disulfide 2-7; N-terminus assumed
SMILES: CC[C@H](C)[C@H](NC(=O)[C@H](C)NC(=O)CNC(=O)[C@H](Cc1ccccc1)NC(=O)[C@H](CC(N)=O)NC(=O)[C@@H]1CCCN1C(=O)[C@H](CO)NC(=O)[C@H](CO)NC(=O)[C@H](Cc1c[nH]cn1)NC(=O)[C@H](CCCNC(=N)N)NC(=O)[C@H](CC(C)C)NC(=O)[C@H](Cc1ccccc1)NC(=O)[C@H](CC(N)=O)NC(=O)[C@H](C)NC(=O)[C@H](CC(C)C)NC(=O)[C@H](CCCNC(=N)N)NC(=O)[C@H](CCC(N)=O)NC(=O)[C@@H](NC(=O)[C@H](C)NC(=O)[C@@H]1CSSC[C@H](NC(=O)[C@@H](N)CCCCNC(=O)COCCOCCNC(=O)CC[C@H](NC(=O)CCCCCCCCCCCCCCCCCCC(=O)O)C(=O)O)C(=O)N[C@@H](CC(N)=O)C(=O)N[C@@H]([C@@H](C)O)C(=O)N[C@@H](C)C(=O)N[C@@H]([C@@H](C)O)C(=O)N1)[C@@H](C)O)C(=O)N1CCC[C@H]1C(=O)N[C@@H](CO)C(=O)N1CCC[C@H]1C(=O)N[C@H](C(=O)N1CCC[C@H]1C(=O)N[C@H](C(=O)NCC(=O)N[C@@H](CO)C(=O)N[C@@H](CC(N)=O)C(=O)N[C@H](C(=O)N[C@@H](Cc1ccc(O)cc1)C(N)=O)[C@@H](C)O)C(C)C)[C@@H](C)O
notes: h-amylin derivative; disulfide bridge and C-terminal amide as told for human amylin; also called compound 54
B6: N^ε1-[2-[2-[2-[[(4S)-4-carboxy-4-(19-carboxynonadecanoylamino)butanoyl]amino]ethoxy]ethoxy]acetyl]-[Arg17,Pro21,Pro27,Pro28,Pro31]-h-amylin (peptide)
peptide: K([AEEA-γGlu-C20 diacid])CNTATCATQRLANFLRHSSPNFGAIPPSTPVGSNTY-NH2
modifications: disulfide 2-7
notes: h-amylin derivative; disulfide bridge and C-terminal amide as told for human amylin; also called compound 53
B7: N^ε1-[2-[2-[2-[[(4S)-4-carboxy-4-(19-carboxynonadecanoylamino)butanoyl]amino]ethoxy]ethoxy]acetyl]-[Arg17,Pro21,Pro27,Pro31,His35]-h-amylin (peptide)
peptide: K([AEEA-γGlu-C20 diacid])CNTATCATQRLANFLRHSSPNFGAIPSSTPVGSHTY-NH2
modifications: disulfide 2-7; N-terminus assumed
SMILES: CC[C@H](C)[C@H](NC(=O)[C@H](C)NC(=O)CNC(=O)[C@H](Cc1ccccc1)NC(=O)[C@H](CC(N)=O)NC(=O)[C@@H]1CCCN1C(=O)[C@H](CO)NC(=O)[C@H](CO)NC(=O)[C@H](Cc1c[nH]cn1)NC(=O)[C@H](CCCNC(=N)N)NC(=O)[C@H](CC(C)C)NC(=O)[C@H](Cc1ccccc1)NC(=O)[C@H](CC(N)=O)NC(=O)[C@H](C)NC(=O)[C@H](CC(C)C)NC(=O)[C@H](CCCNC(=N)N)NC(=O)[C@H](CCC(N)=O)NC(=O)[C@@H](NC(=O)[C@H](C)NC(=O)[C@@H]1CSSC[C@H](NC(=O)[C@@H](N)CCCCNC(=O)COCCOCCNC(=O)CC[C@H](NC(=O)CCCCCCCCCCCCCCCCCCC(=O)O)C(=O)O)C(=O)N[C@@H](CC(N)=O)C(=O)N[C@@H]([C@@H](C)O)C(=O)N[C@@H](C)C(=O)N[C@@H]([C@@H](C)O)C(=O)N1)[C@@H](C)O)C(=O)N1CCC[C@H]1C(=O)N[C@@H](CO)C(=O)N[C@@H](CO)C(=O)N[C@H](C(=O)N1CCC[C@H]1C(=O)N[C@H](C(=O)NCC(=O)N[C@@H](CO)C(=O)N[C@@H](Cc1c[nH]cn1)C(=O)N[C@H](C(=O)N[C@@H](Cc1ccc(O)cc1)C(N)=O)[C@@H](C)O)C(C)C)[C@@H](C)O
notes: h-amylin derivative; disulfide bridge and C-terminal amide as told for human amylin; also called compound 57

What follows are binders tested against T1, human amylin 3(a) receptor (human …) (assay: cell-based or functional assay).

Point of comparison: B6, “Ratio hCT/hAmylin funct.” value 9.8. Against it:
- B1 — lower, 8.9
- B2 — lower, 5
- B5 — lower, 9.6

Point of comparison: B4, “hAmylin-R funct. EC50” value 0.068 nM. Against it:
- B2 — within 1.5-fold, 0.102 nM
- B3 — within 1.5-fold, 0.047 nM
- B7 — within 1.5-fold, 0.089 nM

The binders below were run against T2, human calcitonin receptor (assay: cell-based or functional assay).

Point of comparison: B2, “hCTR funct. EC50” value 0.506 nM. Against it:
- B1 — 6.8-fold higher, 3.43 nM
- B3 — 2-fold higher, 1.03 nM
- B4 — within 1.5-fold, 0.731 nM
- B5 — 2-fold higher, 0.987 nM
- B6 — within 1.5-fold, 0.625 nM
- B7 — 6.2-fold higher, 3.12 nM
